# US9872921B2, “DE-N-acetyl sialic acid antigens, antibodies thereto, and methods of use in cancer therapy” (priority 2004, dated 2018)
# B1: SEAM 3: murine anti-N-Pr NmB polysaccharide monoclonal antibody (IgG2b), ATCC Deposit No. HB-12170 (antibody, V domains shown)
# VH: EVKLQESGGGLVQPGDSLSLSCAASGFTFTPYYMGWVRQPPGKALEWLGYIRNKANGYTTEYSASVKGRFTISRDNSQSILYLQMNALRAEDSATYYCARYARGTVDSWGQGTTLTVS
# VL: DIVMTQSPLTLSVTIGQPASISCKSSQSLLHSNGKTYLNWLLQRPGQSPKLLIYLVSKLESGVPDRFSGSGSGTDFTLKISRVEAEDLGLYYCLQIIHFPHTFGAGTKLELKRA
# modifications: mouse
# Legend:
# [1] = system: CHP-134 neuroblastoma cells; test: Flow cytometry binding to cells; type: cell-based, human
# Protocol: (§1) Cells (approximately 10^5 per well) were plated onto a flat bottom 96-well tissue culture plate (Nunc) and incubated with growth medium overnight before assay. Cells were detached from the plate by either trypsin (SK-MEL-28) or CDR (CHP-134) before being collected into a 96-round bottom plate, spun at 500 g for 5 minutes and fixed with ice-cold 1% (v/v) formaldehyde. After 20 minutes cells were pelleted by centrifugation (above) and incubated a blocking solution of 3% (v/v) goat serum with and without Triton X-100 (0.5% w/v) for 1 hour. After which the primary antibodies were added and incubated for 2 h or overnight at 4° C. The cells were washed twice by pelleting and resuspension in ice-cold PBS. Secondary antibody (Invitrogen, as described above) was incubated with the cells for at least 1 hour at 4° C. in the dark. After another series of spins and washes (3 times) binding was analyzed by a Guava EastCyte flow cytometer. Control samples were treated with an isotype matched irrelevant antibody (Southern Biotech), which were used to create baseline fluorescence, or positive control mAbs that are reactive with antigens specifically expressed by the cells (i.e. anti-GD3 for SK-MEL 28 cells and anti-NCAM in CHP-134 cells). In addition, specificity of binding was shown for the Jurkat cells by preincubating SEAM 3 with 50 μg/ml N-Pr NmB PS prior to adding the mAb to the cells.
# SK-MEL 28 melanoma cells = test: Flow cytometry binding to cells; type: cell-based, human
# Protocol: as §1
# [2] = system: Jurkat T-cell leukemia cells; test: Flow cytometry binding to cells; type: cell-based, human
# Protocol: as §1
# SK-MEL 28 cells [3] = test: Flow cytometry double labeling of SEAM 3 binding and Ki-67 antigen; type: cell-based, human
# Protocol: Cells were processed by the same procedures used to measure SEAM 3 binding in the absence of Triton. After unbound SEAM 3 had been washed away, cells were treated with 3% (v/v) goat serum containing 0.5% Triton to allow entry of an anti-Ki-67 antibody. After 1 h at 4° C., an anti-Ki-67 was added and incubated on-ice for 2 hours. Cells were then collected by centrifugation, washed twice with PBS, and two fluorescently labeled goat anti-mouse secondary antibodies were added, anti IgG2b-Alexa Flour 594 (Invitrogen); anti-IgM-Alexa Flour 488 (Invitrogen). After extensive washing, cells were analyzed on a Guava EasyCyte flow cytometer.
# [4] = system: Jurkat cells (acute lymphoblastic T-cell leukemia); conditions: approximately proportional to level of antigen on cell surface
# human melanomas = test: Immunostaining of frozen sections of human melanomas; conditions: frozen unfixed sections, 400× magnification
# Protocol: To determine whether there is a difference in expression of SEAM 3-reactive antigen between normal melanocytes and melanoma tumor cells, immuno-staining of thin sections of each type of tissue were performed. In addition to SEAM 3, controls included the secondary antibody alone and R24, which binds to the ganglioside GD3 that is expressed in normal melanocytes and is overexpressed in some melanomas (Dippold et al. Proc Natl Acad Sci USA, 1980. 77(10): 6114-8.; Graus, et al., Brain Res, 1984. 324(1): 190-4; Houghton et al. Proc Natl Acad Sci USA, 1985. 82(4):1242-6; Panneerselvam et al. J Immunol, 1986. 136(7): 2534-41; Real et al. Cancer Res, 1985. 45(9): 4401-11; Vadhan-Raj et al. J Clin Oncol, 1988. 6(10): 1636-48; Welt t al. Clin Immunol Immunopathol, 1987. 45(2): 214-29).
# The tissue sections were made from frozen samples of normal skin (HuSkinTb111 in FIG. 39) and two human melanomas (HuMel1151 and HuMel4034). To prevent the possibility of blocking de-N-acetyl antigen or extracting a lipid containing the antigen, the sections were prepared from frozen tissue and were dried onto the slides but not fixed with aldehydes or organic solvents (Chammas et al. Cancer Res, 1999. 59(6): 1337-46). […] Bound antibody was then detected using the DAKO LSAB kit following the manufacturer's directions (Thermo Fisher Scientific, Waltham, Mass.). […]
# SK-MEL 28 cells [5] = test: Cell cycle analysis by propidium iodide staining and flow cytometry; type: cell-based, human; conditions: 48 h incubation
# Protocol: To further assess the affect of SEAM 3 mAb on cell growth, the stage of the cell cycle after treatment with SEAM 3 was determined. In this experiment, the cells were stained with the fluorescent DNA binding dye propidium iodide to characterize cell populations in various stages of the cell cycle and the effects of adding control antibodies, nocodazole (a drug that arrest the cells in mitosis) and SEAM 3.
# Approximately 10^5 SK-MEL 28 cells were plated on a 96-well tissue culture plate and allowed to adhere. After 24 h the medium was replaced with one that had either antibody or drug and incubated for a further 48 h. Cells were spun (to collect any cells that may have detached), and fixed in 70% ice-cold methanol (added drop wise) for at least 30 minutes at 4° C. The cells were washed twice with PBS, and to ensure that only DNA was stained, the fixed cells were treated with ribonuclease I (100 μg/ml, source) for 30 minutes at 37° C. Propidium iodide (50 μg/ml) was added and samples were analyzed using a Guava EasyCyte flow cytometer.
# [6] = system: Jurkat T-cell leukemia cells; test: Fluorescence microscopy binding to cells; type: cell-based, human; conditions: without Triton
# Protocol: After an overnight incubation cells were gently washed with PBS buffer and fixed with ice-cold 1% (v/v) formaldehyde. After 20 minutes cells were washed with PBS before blocking non-specific binding with a solution of 3% goat serum for 1 hour. To observe the presence of SEAM 3-reactive antigen that is present inside the cells, the cells were treated Triton X-100 0.5% w/v in 3% goat serum for 1 hour. The primary antibodies were added and incubated for 2 hours or overnight at 4° C. Cells were gently washed by a series (at least twice) with ice-cold PBS before isotype-specific secondary antibody (produced in goat) conjugated with either Alexa Fluor 488 (immunofluorescence and confocal), Alexa Fluor 546 (confocal) Alexa Fluor 594 (immunofluorescence), Alexa Fluor 633 (confocal) was applied for at least 1 hour at 4° C. in the dark (all secondary antibodies conjugated to fluorophores were obtained from Invitrogen, Carlsbad, Calif.). After another series of gentle washes, a hardening mounting medium containing DAPI was applied.
# Confocal images were obtained using a Zeiss Meta510 CLSM at the Biological Imaging Facility, University of California, Berkeley, Calif. and were analyzed using ImageJ Software (NIH). Control antibodies and secondary antibodies applied alone were routinely used to assess background fluorescence.
molecule,measurement,setting,value
B1,binding to internal antigen by flow cytometry,[1]; +Triton X-100,larger amounts of internal SEAM 3-reactive antigen
same,binding to cell surface by flow cytometry,[1]; −Triton,greatest amount of binding
same,binding to internal antigen by flow cytometry,SK-MEL 28 melanoma cells; +Triton X-100,larger amounts of internal SEAM 3-reactive antigen
same,binding to cell surface by flow cytometry,SK-MEL 28 melanoma cells; −Triton,binds to the surface of all three cell lines
same,binding to internal antigen by flow cytometry,[2]; +Triton X-100,larger amounts of internal SEAM 3-reactive antigen
same,binding to cell surface by flow cytometry,[2]; −Triton,least
same,cells expressing SEAM 3-reactive antigen on their surface,"SK-MEL 28 cells [3]; cells in exponential growth phase, flow cytometry and fluorescence microscopy",approximately 20%
same,cells expressing both Ki-67 and SEAM 3-reactive antigen on their surface,SK-MEL 28 cells [3]; double labeling,approximately 11%
same,cells that only express SEAM 3-reactive antigen,SK-MEL 28 cells [3]; double labeling,13%
same,cytotoxic effect,[4],cytotoxic effect of SEAM 3 was observed
same,immunostaining of two human melanomas,human melanomas,staining is weaker but nearly all of the melanoma cells are stained
same,effect on cell cycle phase distribution,SK-MEL 28 cells [5],"reduced the proportion of cells in Go, S-phase and G2/M Phase, while increasing the number in pre-Go"
same,binding to cell surface by microscopy,[6],fluorescence is uniform over the cell surface
